B3: pUL21-H6 (natural protein)
chain: MELSYATTMHYRDVVFYVTTDRNRAYFVCGGCVYSVGRPCASQPGEIAKFGLVVRGTGPDDRVVANYVRSELRQRGLQDVRPIGEDEVFLDSVCLLNPNVSSELDVINTNDVEVLDECLAEYCTSLRTSPGVLISGLRVRAQDRIIELFEHPTIVNVSSHFVYTPSPYVFALAQAHLPRLPSSLEALVSGLFDGIPAPRQPLDAHNPRTDVVITGRRAPRPIAGSGAGSGGAGAKRATVSEFVQVKHIDRVGPAGVSPAPPPNNTDSSSLVPGAQDSAPPGPTLRELWWVFYAADRALEEPRADSGLTREEVRAVRGFREQAWKLFGSAGAPRAFIGAALGLSPLQKLAVYYYIIHRERRLSPFPALVRLVGRYTQRHGLYVPRPDDPVLADAINGLFRDALAAGTTAEQLLMFDLLPPKDVPVGSDVQADSTALLRFIESQRLAVPGGVISPEHVAYLGAFLSVLYAGRGRMSAATHTARLTGVTSLVLAVGDVDRLSAFDRGAAGAASRTRAAGYLDVLLTVRLARSQHGQSV

Key:
[1] = biological target: B3; assay: ITC; hyperphosphorylated CERTL; representative titration
[2] = biological target: B3; assay: ITC; hyperphosphorylated CERTL; mean of 3
[3] = biological target: T1, pUL21-H6 (HSV-1, UniProt P10205 1-535); assay: ITC; 25°C, 20 mM Tris pH 8.5, 500 mM NaCl, 0.5 mM TCEP; CERTL forms or miniCERTL (about 190-380 μM) titrated into pUL21 forms (about 20-33 μM); one-site binding model; conditions: both partners purified
T1 construct: HSV-1 tegument protein pUL21; The tag's end is read from the name pUL21-H6; also called wild-type pUL21; full-length pUL21; source: E. coli T7 Express lysY/Iq, purified (Ni-NTA, SEC); not shown: H6, C-terminal, kept
T1 sequence: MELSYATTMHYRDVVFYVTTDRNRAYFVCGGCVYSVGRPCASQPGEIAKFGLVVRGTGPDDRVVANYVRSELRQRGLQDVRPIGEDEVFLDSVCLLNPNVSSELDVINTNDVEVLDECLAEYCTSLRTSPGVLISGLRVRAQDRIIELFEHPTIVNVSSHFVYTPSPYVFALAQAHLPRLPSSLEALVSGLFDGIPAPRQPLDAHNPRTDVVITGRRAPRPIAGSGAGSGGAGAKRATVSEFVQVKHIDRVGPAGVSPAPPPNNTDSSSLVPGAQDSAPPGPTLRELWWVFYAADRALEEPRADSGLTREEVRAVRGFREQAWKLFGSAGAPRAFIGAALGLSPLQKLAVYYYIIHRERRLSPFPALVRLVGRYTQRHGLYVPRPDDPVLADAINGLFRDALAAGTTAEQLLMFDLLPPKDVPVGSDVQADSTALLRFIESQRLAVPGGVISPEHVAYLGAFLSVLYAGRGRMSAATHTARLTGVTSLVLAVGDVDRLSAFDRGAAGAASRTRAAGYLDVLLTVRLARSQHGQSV

[4] = biological target: the molecule itself; assay: SEC-MALS; Superose 6 increase 10/300 GL, 20 mM Tris pH 8.5, 500 mM NaCl, 0.5 mM TCEP; samples injected at 2 mg/mL
[5] = biological target: T2, StrepII-CERTL^S132A (human, UniProt Q9Y5P4-1 1-624, S132A); assay: ITC; mean of 2
T2 sequence: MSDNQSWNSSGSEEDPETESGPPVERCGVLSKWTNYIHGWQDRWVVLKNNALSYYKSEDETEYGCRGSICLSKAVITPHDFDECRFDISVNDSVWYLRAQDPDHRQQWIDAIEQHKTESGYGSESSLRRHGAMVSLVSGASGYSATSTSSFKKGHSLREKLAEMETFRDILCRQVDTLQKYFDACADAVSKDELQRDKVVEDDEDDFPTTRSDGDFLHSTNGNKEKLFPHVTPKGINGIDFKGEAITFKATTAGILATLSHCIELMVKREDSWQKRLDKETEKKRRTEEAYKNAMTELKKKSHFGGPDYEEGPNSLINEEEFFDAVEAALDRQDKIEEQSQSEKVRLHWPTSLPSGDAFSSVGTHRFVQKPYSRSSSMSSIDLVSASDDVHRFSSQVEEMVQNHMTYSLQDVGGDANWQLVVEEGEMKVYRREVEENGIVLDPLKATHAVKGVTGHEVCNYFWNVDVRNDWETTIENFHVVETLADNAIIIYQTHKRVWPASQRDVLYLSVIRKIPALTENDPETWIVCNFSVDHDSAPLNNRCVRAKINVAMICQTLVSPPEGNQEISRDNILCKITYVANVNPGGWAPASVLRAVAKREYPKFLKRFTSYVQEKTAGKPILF

[6] = biological target: T2, StrepII-CERTL^S132A; assay: ITC; representative titration
[7] = biological target: T3, H6-pUL21C (HSV-1, UniProt P10205 275-535); assay: ITC; representative titration
T3 chain: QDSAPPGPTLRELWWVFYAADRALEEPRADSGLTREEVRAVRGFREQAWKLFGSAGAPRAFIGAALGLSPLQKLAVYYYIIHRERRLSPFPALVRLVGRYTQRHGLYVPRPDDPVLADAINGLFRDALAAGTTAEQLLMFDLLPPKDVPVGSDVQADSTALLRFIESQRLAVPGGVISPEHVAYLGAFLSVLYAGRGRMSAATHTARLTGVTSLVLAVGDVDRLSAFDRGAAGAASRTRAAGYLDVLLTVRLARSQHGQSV

[8] = biological target: T4, pUL21^V382E-H6 (HSV-1, UniProt P10205 1-535, V382E); assay: ITC; 25°C, 20 mM Tris pH 8.5, 500 mM NaCl, 0.5 mM TCEP; CERTL forms or miniCERTL (about 190-380 μM) titrated into pUL21 forms (about 20-33 μM); one-site binding model; conditions: both partners purified
T4 construct: HSV-1 tegument protein pUL21 with V382E; The tag's end is read from the name pUL21^V382E-H6; also called H6-pUL21^V382E; V382E pUL21-H6; source: E. coli T7 Express lysY/Iq, purified (Ni-NTA, SEC); not shown: H6, C-terminal, kept
T4 sequence: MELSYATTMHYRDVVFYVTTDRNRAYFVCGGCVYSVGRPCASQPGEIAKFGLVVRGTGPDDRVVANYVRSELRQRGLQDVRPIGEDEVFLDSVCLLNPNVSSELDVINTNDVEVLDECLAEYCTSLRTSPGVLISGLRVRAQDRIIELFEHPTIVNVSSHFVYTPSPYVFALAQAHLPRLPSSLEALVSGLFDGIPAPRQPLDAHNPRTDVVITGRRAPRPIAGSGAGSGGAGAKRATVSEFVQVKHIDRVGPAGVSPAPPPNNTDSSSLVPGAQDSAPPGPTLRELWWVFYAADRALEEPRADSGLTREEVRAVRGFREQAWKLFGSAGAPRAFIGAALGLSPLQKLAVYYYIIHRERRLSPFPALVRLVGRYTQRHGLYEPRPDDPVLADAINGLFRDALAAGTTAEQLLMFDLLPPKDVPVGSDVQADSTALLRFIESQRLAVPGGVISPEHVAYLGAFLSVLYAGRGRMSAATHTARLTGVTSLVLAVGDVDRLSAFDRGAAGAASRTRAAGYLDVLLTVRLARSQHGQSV

[9] = biological target: T5, H6-pUL21C (HSV-1, UniProt P10205 275-535); assay: as above; conditions: both partners purified
T5 construct: HSV-1 pUL21 C-terminal domain, amino acids 275-535; In pOPTH; N-terminal MAH6QD and C-terminal HGQSV are missing from the crystal structure 5ED7 and were modelled; also called C-terminal domain of pUL21; source: E. coli T7 Express lysY/Iq, purified (Ni-NTA, SEC); not shown: MAH6, N-terminal, kept
T5 sequence: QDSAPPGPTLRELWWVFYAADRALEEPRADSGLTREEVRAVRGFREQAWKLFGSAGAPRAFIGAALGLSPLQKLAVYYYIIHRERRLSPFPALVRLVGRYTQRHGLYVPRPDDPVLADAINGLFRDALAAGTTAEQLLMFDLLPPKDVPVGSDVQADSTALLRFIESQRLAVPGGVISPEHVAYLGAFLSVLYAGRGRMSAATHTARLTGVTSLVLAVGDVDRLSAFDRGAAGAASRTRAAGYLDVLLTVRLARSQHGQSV

[10] = biological target: B3; assay: ITC; representative titration
[11] = biological target: B3; assay: ITC; mean of 6

B1: StrepII-CERTL^P (hyperphosphorylated StrepII-tagged CERTL) (natural protein, human, UniProt Q9Y5P4-1 1-624, looked up)
chain: MSDNQSWNSSGSEEDPETESGPPVERCGVLSKWTNYIHGWQDRWVVLKNNALSYYKSEDETEYGCRGSICLSKAVITPHDFDECRFDISVNDSVWYLRAQDPDHRQQWIDAIEQHKTESGYGSESSLRRHGSMVSLVSGASGYSATSTSSFKKGHSLREKLAEMETFRDILCRQVDTLQKYFDACADAVSKDELQRDKVVEDDEDDFPTTRSDGDFLHSTNGNKEKLFPHVTPKGINGIDFKGEAITFKATTAGILATLSHCIELMVKREDSWQKRLDKETEKKRRTEEAYKNAMTELKKKSHFGGPDYEEGPNSLINEEEFFDAVEAALDRQDKIEEQSQSEKVRLHWPTSLPSGDAFSSVGTHRFVQKPYSRSSSMSSIDLVSASDDVHRFSSQVEEMVQNHMTYSLQDVGGDANWQLVVEEGEMKVYRREVEENGIVLDPLKATHAVKGVTGHEVCNYFWNVDVRNDWETTIENFHVVETLADNAIIIYQTHKRVWPASQRDVLYLSVIRKIPALTENDPETWIVCNFSVDHDSAPLNNRCVRAKINVAMICQTLVSPPEGNQEISRDNILCKITYVANVNPGGWAPASVLRAVAKREYPKFLKRFTSYVQEKTAGKPILF
modifications: hyperphosphorylated; sites not given
notes: human CERTL, synthetic gene, UniProt Q9Y5P4-1; Observed mass by SEC-MALS approaches that of a trimer; not shown: StrepII, N-terminal, kept
In the case of B1, the Kd [1] is reported as 554 nM, the Kd [2] is reported as 773 nM and the “stoichiometry N” value [3] is reported as 0.74. The “stoichiometry N” value [4] was roughly 3.

B2: StrepII-CERTL^S132A (natural protein, human, UniProt Q9Y5P4-1 1-624, looked up)
chain: MSDNQSWNSSGSEEDPETESGPPVERCGVLSKWTNYIHGWQDRWVVLKNNALSYYKSEDETEYGCRGSICLSKAVITPHDFDECRFDISVNDSVWYLRAQDPDHRQQWIDAIEQHKTESGYGSESSLRRHGAMVSLVSGASGYSATSTSSFKKGHSLREKLAEMETFRDILCRQVDTLQKYFDACADAVSKDELQRDKVVEDDEDDFPTTRSDGDFLHSTNGNKEKLFPHVTPKGINGIDFKGEAITFKATTAGILATLSHCIELMVKREDSWQKRLDKETEKKRRTEEAYKNAMTELKKKSHFGGPDYEEGPNSLINEEEFFDAVEAALDRQDKIEEQSQSEKVRLHWPTSLPSGDAFSSVGTHRFVQKPYSRSSSMSSIDLVSASDDVHRFSSQVEEMVQNHMTYSLQDVGGDANWQLVVEEGEMKVYRREVEENGIVLDPLKATHAVKGVTGHEVCNYFWNVDVRNDWETTIENFHVVETLADNAIIIYQTHKRVWPASQRDVLYLSVIRKIPALTENDPETWIVCNFSVDHDSAPLNNRCVRAKINVAMICQTLVSPPEGNQEISRDNILCKITYVANVNPGGWAPASVLRAVAKREYPKFLKRFTSYVQEKTAGKPILF
notes: human CERTL, synthetic gene, UniProt Q9Y5P4-1, with S132A; Hypophosphorylated: S132 cannot be phosphorylated to start the phosphorylation cascade of the serine-rich motif; also called constitutively hypophosphorylated form of CERTL; source: stably transfected Freestyle 293F cells, doxycycline-induced, purified (StrepTrap HP, Superose 6 SEC); not shown: StrepII, N-terminal, kept
B2 was tested, and the “stoichiometry N” value [3] was 1 and the “stoichiometry N” value [4] was roughly 3.

Binder B3 has a Kd [5] of 642 nM and a Kd [6] of 460 nM.

B4: H6-miniCERTL (domain or fragment, human, UniProt Q9Y5P4-1 20-131, looked up)
chain: SGPPVERCGVLSKWTNYIHGWQDRWVVLKNNALSYYKSEDETEYGCRGSICLSKAVITPHDFDECRFDISVNDSVWYLRAQDPDHRQQWIDAIEQHKTESGYGSESSLRRHGTSLPSGDAFSSVGTHRFVQKPYSRSSSMSSIDLVSASDDVHRFSSQVEEMVQNHMTYSLQDVGGDANWQLVVEEGEMKVYRREVEENGIVLDPLKATHAVKGVTGHEVCNYFWNVDVRNDWETTIENFHVVETLADNAIIIYQTHKRVWPASQRDVLYLSVIRKIPALTENDPETWIVCNFSVDHDSAPLNNRCVRAKINVAMICQTLVSPPEGNQEISRDNILCKITYVANVNPGGWAPASVLRAVAKREYPKFLKRFTSYVQEKTAGKPILF
notes: human CERTL (UniProt Q9Y5P4-1), residues 20-131: PH domain without its first 19 residues and the start of the middle region; human CERTL (UniProt Q9Y5P4-1), residues 351-624: the end of the middle region and the STARTL domain; joined directly to residue 131 (MR residues 132-350 left out); Cloned into pOPTH, which encodes the N-terminal MAH6 tag; source: E. coli T7 Express lysY/Iq, purified …
For B4, the Kd [7] was 3150 nM, the “fold reduction of binding affinity against wild-type pUL21” value [8] was roughly 8 fold and the Kd [9] was 4300 nM. The Kd [10] was 879 nM and the Kd [11] was 1040 nM.

From paper doi:10.1101/2022.06.01.494398, “Herpes simplex virus 1 protein pUL21 stimulates cellular ceramide transport by activating CERT” (bioRxiv, 2022)
